Laboratory results reported in patent US5968815.

Assays:
[1] = target: Nef (SIV) peptide 1-15 (SIV strain Mac251)
[2] = target: Nef (SIV) peptide 16-30 (SIV strain Mac251)
[3] = target: Nef (SIV) peptide 221-235 (SIV strain Mac251)
[4] = target: Nef (SIV) peptide 40-60 (SIV strain Mac251)
[5] = target: Nef (SIV) peptide 84-96 (SIV strain Mac251)
mouse CD8 (LYT2) (mouse) = mouse CD8 (LYT2) (mouse) (UniProt P01731)
mouse CD4 (L3T4) (mouse) = mouse CD4 (L3T4) (mouse) (UniProt P06332)

Row | Substance | proliferation of lymph node cells (cpm) [1] [cpm] | proliferation of lymph node cells (cpm) [2] [cpm] | proliferation of lymph node cells (cpm) [3] [cpm] | proliferation of lymph node cells (cpm) [4] [cpm] | proliferation of lymph node cells (cpm) [5] [cpm] | inhibition of the proliferative response of LN cells to beta-galactosidase (mouse CD8 (LYT2) (mouse)) [%] | inhibition of the proliferative response of LN cells to beta-galactosidase (mouse CD4 (L3T4) (mouse)) [%]
1 | lymph node cells of unimmunized rats (control of FIG. 14) (cells without a defined receptor) | < 250 | < 250 | < 250 | < 250 | < 250 |  | 
2 | anti-CD8 monoclonal antibody, hybridoma H35 17-2 (rat anti-mouse LYT2) |  |  |  |  |  | 30 | 
3 | anti-CD4 monoclonal antibody, hybridoma GK 1-5 (rat anti-mouse L3T4) |  |  |  |  |  |  | 70
4 | lymph node cells of Balb/c mice immunised with non-recombinant BCG strain 1173P2 (cells without a defined receptor) | < 2500 | < 2500 | < 2500 | < 2500 | 5000 |  | 
